In patent US20230265192A1 (GIGAGEN, published 2023):
Like-named read-outs stand apart in the source and are kept apart here.

What was measured:
[1] = target: T1, His-tagged human CTLA-4 (CT4-H5229; Acro Biosystems) (human, UniProt P16410 36-161); test: SPR (Carterra)
T1 construct: bought soluble protein; also called soluble human CTLA-4; recombinant human CTLA-4; not shown: His tag
Procedure: (§1) Then, goat anti-Human IgG Fc (Southern Biotech 2047-01) was coupled for 10 minutes at […] in 10 mM Sodim Acetate pH 4.5 (Carterra Inc.). The surface was then deactivated with 1 M ethanolamine pH 8.5 (Carterra Inc.). Running buffer used for the lawn immobilization was HBS-EPC (10 mM HEPES, 150 mM NaCl, 3 mM EDTA, 0.05% Tween 20, pH 7.4; Teknova).
(§2) The sensor chip was then transferred to a continuous flow microspotter (CFM; Carterra Inc.) for array capturing. The mAb supernatants were diluted 50-fold ([…] final concentration) into HBS-EPC with 1 mg/mL BSA. The samples were each captured twice with 15-minute and 4-minute capture steps on the first and second prints, respectively, to create multiple densities, using a […] flow rate. The running buffer in the CFM was also HBS-EPC.
(§3) Next, the sensor chip was loaded onto an SPR reader (MX-96 system; Ibis Technologies) for the kinetic analysis. CTLA-4 was injected at five increasing concentrations in a four-fold dilution series with concentrations of 1.95, 7.8, 31.25, 125, and 500 nM in running buffer (HBS-EPC with 1.0 mg/mL BSA). CTLA-4 injections were 5 minutes with a 15-minute dissociation at […] in a non-regenerative kinetic series. An injection of the goat anti-Human IgG Fc capture antibody at […] was injected at the end of the series to verify the capture level of each mAb. Binding data was double referenced by subtracting an interspot surface and a blank injection and analyzed for ka (on-rate), kd (off-rate), and KD (affinity) using the Kinetic Interaction Tool software (Carterra Inc.).

[2] = target: T1, His-tagged human CTLA-4 (CT4-H5229; …); test: SPR (Carterra); remark: listed apart in the source
Procedure: as §1, §2, §3

[3] = target: T2, human CTLA-4 expressed on the cell surface (human, UniProt P16410 36-223); test: cell-based or functional assay
[4] = target: T3, His-tagged cynomolgus CTLA-4 (CT4-C5227; Acro Biosystems) (cynomolgus, UniProt G7PL88 36-161); test: BLI (Octet)
T3 construct: also called soluble cynomolgus CTLA-4; cyno CTLA-4
Procedure: (§4) The binding specificity and affinity of each full-length antibody towards CTLA-4 were determined using biolayer interferometry (BLI) and/or surface plasmon resonance (SPR). Anti-cyno CTLA-4 and anti-mouse CTLA-4 affinities were tested using ForteBio (BLI). Anti-human CTLA-4 affinities were measured using Carterra (SPR).
(§5) For BLI, antibodies were loaded onto an Anti-Human IgG Fc (AHC) biosensor using the Octet Red96 system (ForteBio). Loaded biosensors were dipped into antigen dilutions beginning at 300 nM, with 6 serial dilutions at 1:3. Kinetic analysis was performed using a 1:1 binding model and global fitting.

mouse CTLA-4 = mouse CTLA-4 (mouse, UniProt P09793 36-161, limits assumed); test: BLI (Octet)
Procedure: as §4, §5

CD27 on CHO cells [5] = target: T4, CD27 on CHO cells (UniProt P26842 20-260, limits assumed); test: flow cytometry, mixed CTLA-4+ and CD27+ CHO cells
T4 construct: whole, on cells; also called CD27+ CHO cells; irrelevant antigen (CD27)
Procedure: To determine if the CTLA-4 mAbs bound the appropriate antigen expressed on the surface of mammalian cells, CHO cell lines stably expressing human CTLA-4 or an irrelevant antigen (CD27) were generated. Cells (0.5×10⁶ each cell line) were combined and washed with MACS buffer (Dulbecco's Phosphate Buffered Saline [DPBS], with 0.5% bovine serum albumin [BSA], and 2 mM ethylenediaminetetraacetic acid [EDTA]). The cells were incubated with 10 μg/mL anti-CTLA-4 for 30 min at 4° C., then excess, unbound mAbs were removed by washing twice with MACS buffer. The cells were then stained with PE-conjugated anti-Human IgG Fc antibody (clone M1310G05, BioLegend 410720, San Diego, Calif., USA) to detect bound anti-CTLA-4 and with fluorescein isothiocyanate (FITC)-conjugated anti-CD27 (clone 0323, BioLegend 302806, San Diego, Calif., USA) to distinguish the cells expressing the irrelevant antigen. Cells were washed twice with MACS buffer, fixed with 4% paraformaldehyde fixation buffer (BioLegend 420801, San Diego, Calif., USA) for 20 minutes at room temperature and washed twice more with MACS buffer. […] Binding of mAbs to CTLA-4 on the cell surface was determined using LSR II (BD Biosciences, San Jose, Calif., USA) or CytoFLEX LX (Beckman Coulter, Brea. Calif., USA) flow cytometers and analyzed using FlowJo (v10.6.1, BD Biosciences, San Jose, Calif., USA).

CD27 on CHO cells [6] = target: T4, CD27 on CHO cells; test: flow cytometry, 10 µg/mL mAb, geometric MFI
Procedure: (§6) Table 23. In vitro characterization of scFvs reformatted as full-length antibodies. kon, koff, and KD of the indicated CTLA-4 mAbs for soluble human CTLA-4 was determined by SPR (Carterra). Geometric MFI of the indicated CTLA-4 mAbs bound to CTLA-4⁺ or CD27⁺ CHO cells as detected by a secondary human IgG antibody and flow cytometry. Affinity (KD) of the indicated CTLA-4 mAbs for soluble cynomolgus CTLA-4 was determined by a single antigen concentration BLI measurement (Octet). […] Due to constraints on sample size in each Promega bioassay kit, this set of aCTLA-4 mAbs was analyzed using multiple plates (plate letters correspond to Plate A-D in FIG. 20D).
(§7) To determine if the CTLA-4 mAbs bound the appropriate antigen expressed on the surface of mammalian cells, CHO cell lines stably expressing human CTLA-4 or an irrelevant antigen (CD27) were generated. Cells (0.5×10⁶ each cell line) were combined and washed with MACS buffer (Dulbecco's Phosphate Buffered Saline [DPBS], with 0.5% bovine serum albumin [BSA], and 2 mM ethylenediaminetetraacetic acid [EDTA]). The cells were incubated with 10 μg/mL anti-CTLA-4 for 30 min at 4° C., then excess, unbound mAbs were removed by washing twice with MACS buffer. The cells were then stained with PE-conjugated anti-Human IgG Fc antibody (clone M1310G05, BioLegend 410720, San Diego, Calif., USA) to detect bound anti-CTLA-4 and with fluorescein isothiocyanate (FITC)-conjugated anti-CD27 (clone 0323, BioLegend 302806, San Diego, Calif., USA) to distinguish the cells expressing the irrelevant antigen. Cells were washed twice with MACS buffer, fixed with 4% paraformaldehyde fixation buffer (BioLegend 420801, San Diego, Calif., USA) for 20 minutes at room temperature and washed twice more with MACS buffer.

[7] = target: T2, human CTLA-4 expressed on the cell …; test: flow cytometry, 10 µg/mL mAb, geometric MFI
Procedure: as §6, §7

T1 sequence (P16410 36-161 limits assumed): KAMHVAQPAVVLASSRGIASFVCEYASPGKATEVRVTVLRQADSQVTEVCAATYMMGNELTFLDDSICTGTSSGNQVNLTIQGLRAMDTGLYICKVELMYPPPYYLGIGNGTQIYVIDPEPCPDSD
T4 sequence (P26842 20-260 limits assumed): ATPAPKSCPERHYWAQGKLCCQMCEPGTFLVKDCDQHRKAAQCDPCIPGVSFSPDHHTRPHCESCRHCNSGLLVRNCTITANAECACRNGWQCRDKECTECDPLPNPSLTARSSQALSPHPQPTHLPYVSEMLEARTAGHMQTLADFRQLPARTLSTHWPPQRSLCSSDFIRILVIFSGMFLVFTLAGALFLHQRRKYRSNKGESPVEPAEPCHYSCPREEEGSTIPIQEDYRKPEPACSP
T2 sequence (P16410 36-223 limits assumed): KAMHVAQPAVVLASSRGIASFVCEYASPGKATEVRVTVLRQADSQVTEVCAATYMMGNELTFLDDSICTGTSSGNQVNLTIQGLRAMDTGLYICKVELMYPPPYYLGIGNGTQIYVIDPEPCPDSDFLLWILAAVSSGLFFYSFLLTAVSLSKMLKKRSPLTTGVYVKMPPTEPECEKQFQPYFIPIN
T3 sequence (G7PL88 entry or part of it limits assumed, form in doubt): as the sequence (P16410 36-161 limits assumed) above, with S14N, I18T, L106M counted along it
mouse CTLA-4, sequence (P09793 36-161 limits assumed): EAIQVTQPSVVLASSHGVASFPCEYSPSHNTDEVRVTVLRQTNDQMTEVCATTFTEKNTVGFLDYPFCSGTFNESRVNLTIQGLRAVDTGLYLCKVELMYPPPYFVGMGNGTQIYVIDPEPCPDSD

Kd [1] | Kd [2] | koff [2] | kon [2] | Promega assay % inhibition [3] | Promega assay antagonist (EC50, ug/mL) [3] | Kd [4] | binding result (mouse CTLA-4) | binding result (CD27 on CHO cells [5]) | MFI of CD27+ CHO cells (CD27 on CHO cells [6]) | MFI of CTLA-4+ CHO cells [7] | Binder
31 nM | 31 nM | 0.00055 s⁻¹ | 18000 M⁻¹ s⁻¹ |  |  |  |  |  |  |  | antibody A21 (L21H21) (antibody, V domains shown, also called aCTLA-4.10) VH: QVQLVESGGGVVQPGRSLRLSCAASGFTFSSYGMHWVRQAPGKGLEWVAVIWYDGNNKYYADSVKGRFTISRDNSKNTLYLHMNSLRADDTAVYYCARMLRGAPYYYGMDVWGQGTTVTVSS VL: not shown
7.5 nM | 7.5 nM | 0.00035 s⁻¹ | 47000 M⁻¹ s⁻¹ | 26.6% | 0.42 µg/mL | 1.6 nM | no binding (tested: 300 nM) |  |  |  | antibody A11 (L11H11) (antibody, V domains shown, also called aCTLA-4.31) VH: QVQLVESGGGVVQPGRSLRLSCAASGFTFSSYGMHWVRQAPGKGLEWVAVIWYDVGNKYYIDSVKGRFTISRDNSKNTLYLQMNSLRAEDTAVYYCARDYYGSGSPRHFDYWGQGTLVTVSS VL: DIQLTQSPSFLSASVGDRVTITCRASQGISSYLAWYQQKPGKAPKLLIYAASTLQSGVPSRFSGSGSGTEFTLTISSLQPEDFATYYCQQLNSYPPTFGQGTKVEIK
 |  |  |  |  |  |  |  | no binding (tested: 10 µg/mL) | 17.1 |  | antibody A12 (L12H12) (antibody, V domains shown, also called aCTLA-4.12; CTLA4.A12) VH: QVQLVESGGGVVQPGRSLRLSCAASGFTFSSYGMHWVRQAPGKGLEWVAVIWYDGSNKYYADSVKGRFTFSRDNSKNTLYLQMNSLRAEDTAVYYCARGGLMGAFDYWGQGTLVTVSS VL: not shown
 |  |  |  |  |  |  | no binding (tested: 300 nM) |  |  |  | Ipilimumab analog (antibody, V domains shown, also called ipi analog; in-house produced ipilimumab) VH: QVQLVESGGGVVQPGRSLRLSCAASGFTFSSYTMHWVRQAPGKGLEWVTFISYDGNNKYYADSVKGRFTISRDNSKNTLYLQMNSLRAEDTAIYYCARTGWLGPFDYWGQGTLVTVSS VL: not shown
 |  |  |  |  |  |  |  | no binding (tested: 10 µg/mL) | 15.9 | 717 | antibody A14 (L14H14), GIGA-564 (antibody, V domains shown, also called aCTLA-4.15) VH: QVQLVESGGGVVQPGRSLRLSCAASGFTFSSYGMHWVRQAPGTGLEWVAVIWYEGRNKYYADPVKGRFTISRDNSKNTLYLQMNSLRDDDTAVYYCARAGDLGAFDIWGQGTMVTVSSA VL: not shown
120 nM | 120 nM | 0.0036 s⁻¹ | 31000 M⁻¹ s⁻¹ |  |  |  |  |  |  |  | antibody A27 (L27H27) (antibody, V domains shown, also called aCTLA-4.8) VH: QVQLVQSGAEVKKPGASVKVSCKASGYTFTSYGISWVRQAPGQGLEWMGWISAYNGNTNYAQKLQGRVTMTTDTSTSTAYMELRSLRSDDTAVYYCGRWVRGVEYWGQGTLVTVSS VL: not shown

Second part, the binder before the results:

Binder | Kd [1] | Kd [2] | koff [2] | kon [2] | Promega assay % inhibition [3] | Promega assay antagonist (EC50, ug/mL) [3] | Kd [4] | binding result (mouse CTLA-4) | binding result (CD27 on CHO cells [5]) | MFI of CD27+ CHO cells (CD27 on CHO cells [6]) | MFI of CTLA-4+ CHO cells [7]
antibody A15 (L15H15) (antibody, V domains shown, also called aCTLA-4.18) VH: QVQLVESGGGVVQPGRSLRLSCAASGFTFRSYGMHWVRQAPGKGLEWVAVIWYDGSNKHYADSVKGRFTISRDNSKNTLYLQMNSLRAEDTAVYYCARNGLIGAFDIWGQGTMVTVSS VL: not shown | 10 nM | 10 nM | 0.00073 s⁻¹ | 70000 M⁻¹ s⁻¹ | 0% |  | 2.6 nM |  |  |  | 
antibody A16 (L16H16) (antibody, V domains shown, also called aCTLA-4.5) VH: QVQLVESGGGVVQPGRSLRLSCAASGFTFSSYGIHWVRQAPGKGLEWVAVIWYDGSNKYYADSVKGRFTISRDNSKNTLYLQMNSLRAEDTAVYYCARGSLLGPFDYWGQGTLVTVSS VL: DIQMTQSPSSLSASVGDRVTITCRASQGISNYLAWYQQKPGKVPKLLIYAASTLQSGVPSRFSGSGSGTDFTLTISSLQPEDVATYYCQNYNSAPWTFGQGTKVEIK | 23 nM | 23 nM | 0.00072 s⁻¹ | 31000 M⁻¹ s⁻¹ | 0% |  | 2.8 nM |  |  |  | 
antibody A18 (L18H18) (antibody, V domains shown, also called aCTLA-4.11) VH: QVQLVESGGGVVQPGRSLRLSCAASGFTFSSYGMHWVRQAPGKGLEWVAVIWYDGSNKFYADSVKGRFTISSDNSKNTLYLQMNSLRAEDTAVYYCARGGHLGSFDYWGQGTLVTVSS VL: EIVLTQSPGTLSLSPGERATLSCRASQSVSYLAWYQQKPGQAPRLLIYGASSRATGIPDRFSGSGSGTDFTLTISRLEPEDFAVYYCQQYGSSPWTFGQGTKVEIK |  |  |  |  |  |  |  |  | no binding (tested: 10 µg/mL) | 14.8 | 
antibody A26 (L26H26) (antibody, V domains shown, also called aCTLA-4.20) VH: QVQLVQSGAEVKKPGASVKVSCKASDYTFTYYGISWVRQAPGQGLEWMGWISAYNGNTNYAQKLQGRVTMTTDTSTNTAYLELRSLRSDDTAVYYCARDYYDSSGYFDYWGQGTLVTVSS VL: not shown | 74 nM | 74 nM | 0.00026 s⁻¹ | 3500 M⁻¹ s⁻¹ |  |  |  |  |  |  | 
antibody A17 (L17H17) (antibody, V domains shown, also called aCTLA-4.17) VH: EVQLVESGGGLVQPGGSLRLSCAASGFTFSNYAMSWVRQAPGKGLEWVSAISGGGLSTYYADSVKGRFTISRDNSKNTLYLQMNSLRAEDTAVYYCAKDLLWLGFDYWGQGTLVTVSS VL: DIQMTQSPSSLSASVGDRVTITCRASQAIRNDLGWYQQKPGKAPKRLIYAASSLQSGVPPRFSGSGSGTEFTLTISSLQPEDFATYYCLQHNSYPLTFGGGTKVEIK | 51 nM | 51 nM | 0.0034 s⁻¹ | 66000 M⁻¹ s⁻¹ | 0% |  | 6.3 nM |  |  |  | 
